Test results from paper doi:10.1101/2024.10.04.616694.
Read-outs that look alike come from different tables or passages of the source.

Columns and labels:
Experiment in all cases: AUC
EYFP (Aequorea victoria) [1] = target: EYFP (Aequorea victoria)
EYFP (Aequorea victoria) [2] = target: EYFP (Aequorea victoria); remark: listed apart in the source
EGFP (Aequorea victoria) [3] = target: EGFP (Aequorea victoria)
EGFP (Aequorea victoria) [4] = target: EGFP (Aequorea victoria); remark: listed apart in the source

EYFP was tested. Which stoichiometry N (EYFP (Aequorea victoria) [1]) did it give?
The stoichiometry N was 2.

What about the stoichiometry N (EYFP (Aequorea victoria) [2]) of the same substance?
Its stoichiometry N is 2.

What does the source list for EGFP?
stoichiometry N (EGFP (Aequorea victoria) [3]): 2; stoichiometry N (EGFP (Aequorea victoria) [4]): 2
